The target in this test is HIV gp120 monomer of strain CN97001 (HIV-1, strain CN97001 (paper: clade C); …, UniProt G4XFJ5, strain). Briefly: BLI. For orientation: In BLI a coated tip is dipped into the sample, and binding shifts an interference pattern.

B1: recombinant bnAb 10-1074 (from pTT3 10-1074 NHP-IgG) (antibody, V domains shown)
VH: QVQLQESGPGLVKPSETLSVTCSVSGDSMNNYYWTWIRQSPGKGLEWIGYISDRESATYNPSLNSRVVISRDTSKNQLSLKLNSVTPADTAVYYCATARRGQRIYGVVSFGEFFYYYSMDVWGKGTTVTVSS
VL: LSVALGETARISCGRQALGSRAVQWYQHRPGQAPILLIYNNQDRPSGIPERFSGTPDINFGTRATLTISGVEAGDEADYYCHMWDSRSGFSWSFGGATRLTVL
As for B1, the binding result was “binds”.

For the origin of these results see publication doi:10.1101/2025.05.02.651933 (bioRxiv, 2025).
